Test results published in a protein production outcome set (Wang et al. 2014).

experiment: label from the status in PepcDB records

Row | Sequence | protein production
1 | MSAAPGLLHQELSCPLCLQLFDAPVTAECGHSFCRACLGRVAGEPAADGTVLCPCCQAPTRPQALSTNLQLARLVEGLAQVPQGHCEEHLDPLSIYCEQDRALVCGVCASLGSHRGHRLLPAAEAHARLKTQLPQQKLQLQEACMRKEKSVAVLEHQLVEVEETVRQFRGAVGEQLGKMRVFLAALEGSLDCEAERVRGEAGVALRRELGSLNSYLEQLRQMEKVLEEVADKPQTEFLMKYCLVTSRLQKILAESPPPARLDIQLPIISDDFKFQVWRKMFRALMPALEELTFDPSSAHPSLVVSSSGRRVECSEQKAPPAGEDPRQFDKAVAVVAHQQLSEGEHYWEVDVGDKPRWALGVIAAEAPRRGRLHAVPSQGLWLLGLREGKILEAHVEAKEPRALRSPERRPTRIGLYLSFGDGVLSFYDASDADALVPLFAFHERLPRPVYPFFDVCWHDKGKNAQPLLLVGPEGAEA | failed
2 | MSAARQGVAQARRIVVKVGSSSLTTAAGGLDADRVDALVDVLAKSRSGGEKEIVLVSSGAIAAGLAPLGLRRRPKDLARQQAAASVGQGLLVARYTASCARHGIRVGQVLLTSDDTSRRAHHRNASRTLDKLLAMGALPVVNENDTVATDEIRFGDNDRLAALVAHLVRADLLVLLSDVDGVYDGDPSKPGTSRVAQVHGPQDLAHVEIGSAGRAGVGTGGMVTKIEAARIAAAAGIPVVLTSAVHAADALAGRDTGTYFHPTGKRSADRLLWLQHASTPQGALTLDDGAVRAVVERRKSLLPAGIAAVEGEFTAGDPVELRDSEGRAVARGLVSFDAKEIPQLLGRSTRELARELGPAYEREVVHRDDLVLLQP | failed
3 | MSADGSEYGRYFEQLQKVNLTVRLGDTGSFDGTAAITSLKGSLAWLELFGAEQPPPNTLSEGAEVSVSVWTGGALCRCDGRVETLRDDRQFAIRLVGRVRELQRREYF | not failed
4 | MSADYPRDLIGYGNNPPHPHWPGDARIALSFVLNYEEGGERCVLHGDKESEAFLSEMVAAQPLQGVRHMSMESLYEYGSRAGVWRLLKLFKRRNVPLTVFAVAMAAQRNPEVIRAMVADGHEICSHGYRWIDYQYMDEAQEREHMLEAIRILTELTGQRPVGWYTGRTGPNTRRLVMEEGGFLYDSDTYDDDLPYWDPASTAEKPHLVIPYTLDTNDMRFTQVQGFNNGEQFFQYLKDAFDVLYEEGATAPKMLSIGLHCRLIGRPARMAALERFIQYAQSHDKVWFARREDIARHWHREHPFQETEA | not failed
5 | MSAESASQIPKGQVDLLDFIDWSGVECLNQSSSHSLPNALKQGYREDEGLNLESDADEQLLIYIPFNQVIKLHSFAIKGPEEEGPKTVKFFSNKEHMCFSNVNDFPPSDTAELTEENLKGKPVVLKYVKFQNVRSLTIFIEANQSGSEVTKVQKIALYGST | not failed
6 | MSAGKIDVHGFEKETLFFKNIASGSKGNCTLIWDSTDLIVIDLGITMKKFRDSIKSLDLAGRSISLFISHEHSDHIGGVPTTSKYVDMDVYMRPALSGSFRRKTYEMDGSLVVGNFEIRAFEIPHDAADPVGFSVLWHNRKISVVSDLGKVTDRVIESIRNSDILAFESNHDVEMLRTGSYPEALKRRILSDHGHLSNEQSAEAISRVATDDMRIILTHLSQENNRPEIALNEVKSYLENRNVRYRSIETADQYTGSSLYTLER | failed
7 | MSAIRSRRSLLIPVLIVALLHVYIGVRLLPGLPVPMIVHSLAVLWLIASTLLMPAALMARRLSTPWADQLSWVGMMAMGFFSSLLVLTIARDLFLLVTLAIGWRPPGLTGYSALGAIALALAVTVIGFFQARGLAKVKEVDVPIANLPDALHGFTIAQISDIHVGPTIKRPYIDRIVDRVNSLAPDAIAITGDLVDGSVRELSAHTAPFARLSARHGAYVVTGNHEYYSGAEAWIVELRRLGLRVLMNEHVVVERGDASLVLGGVTDFTAGGFIESHRSDPVQALDGAPRDAAARVLLAHQPRTAPAAAAAGFDLQLSGHTHGGQFWPWNLFVPMQQPYVHGLNRHDNLWVYVSRGTGYWGPPKRFGAPSEITLVRLVRG | failed
8 | MSALDIPVTPENYTVWYEYFAQSNLDLNRAIDGFLANNVVFTKEVNTSLYKNFIQEKSPEVIENVQIETQILINSLISKITQLNQGTEAFSNTLADFGLQLQSSPDVNTLNQLVDGVIDEMQNLLVNNQTMEQSLNAMGQEVQNLKTEMENLSLAAMTDQLTSLHNRRAYEIAIQDHIHRAEEQHTRCSLLLIDIDRFKVFNDTYGHQVGDKVLAYVALALKQCVRGDDFVARYGGEEFVVLLPNTHFHDALQVAETLRGRISERRLAIGKDKKLSLGAITVSIGLASLQKGDDAETLFSRADKALYEAKSDGRNCVRG | failed
9 | MSANDKQYISYNNVHQLCQVSAERIKNFKPDLIIAIGGGGFIPARILRTFLKEPGVPTIRIFAIILSLYEDLNSVGSEVEEVGVKVSRTQWIDYEQCKLDLVGKNVLIVDEVDDTRTTLHYALSELEKDAAEQAKAKGIDTEKSPEMKTNFGIFVLHDKQKPKKADLPAEMLNDKNRYFAAKTVPDKWYAYPWESTDIVFHTRMAIEQGNDIFIPEQEHKQ | failed
10 | MSAPTTFSVALHNETATAQLMADLALLVGPGDVITLTGDLGAGKTAAARAMIRYLADDEALEVPSPTFTLVQGYELPPFPVMHADLYRVEDESELEEIGLSPLPDATLVLIEWPERAPSALPEDRIDIALTHRPALGSNARAADITGYGKSAAQVARLKALREFLDASGYLDAMRRRMAGDASTRSYARLLRDDEIVILMNFPQRPDGAALYNGKSYSAAVHLAENVKPFVAIDEGLRAQGISAPAIHHADLDHGFLISEDFGSEGVIEGNPPRPIPERYEAATDVLAVLHGKTLPETLPLDGQSYAIPVFDTEAMLIEIGLMPEWYLPDRNAPLSEPKRAEFFAMWRELLKKPLAAPRTWIIRDYHSPNLIWLGMRTGIERVGVIDFQDTVLGPQSYDVVSLLQDARIDVPENLELTLLSRYIKARRAGDASFDPAGFAELYAIMSAQRNTRLLGTFARLNRRDGKPHYLRHQPRIWTYLQRSLAHPALSHLRDWYLANVPPPQRPSQEPAPEPPQGLEHHHHHH | not failed
11 | MSARSLRQEALNLPNAITATRIALIPVFLWFTFYESRVDSFIAAVLYAVTGATDFLDGWVARRKNLVTVIGKFLDPLADKLIVMAALVMLVHLGRVAAWVCIVVLAREFIVTGLRTIAMSEGIVIAAGQEGKHKTAFQVAGITFLLLHYTYPIDAIFFSFDLDANRVGTWLVYISLFFSVWSAVSYFANFIRAVYRREGEAQAAEDVRPNRRTSRG | failed
12 | MSASAPQAHGPAATGTVTTDVPARLDRLPWSRWHWMIVIGLGTVWILDGLEVTTVGNIAGRLSEDGSGLSITSAQVTGVAAALYVAGACAGALFFGWLTDRFGRKKLFMVTLVVYLSATALTALSFNSWWFFTFRFLTGFGIGGEYAAINSAIDELIPAKYRGRVDLIINGSYWLGAIGGALLSIVMLDTSIFPKDLGWRLTFALGVVLGLVILLVRRHVPESPRWQFIHGRGEDAEALVSSVEREIEQEKGEPLPRAESEITIEQRKSIGFGLIAKTVFGRYPKRAVLGLALFIGQAFLYNAITFGFGAILTTFYDVPTGGTGYYFAVIAAGNFIGPLLLGKLFDTVGRRIMIASTYLLSGLLLFGTAWLFDRGSLSAMTLTACWCAVLFFASAGASSAYLTVSEVFPMETRAMAIAFFYALGTAAGGISGPLVFADLTESGVVGDTVLAFQIGAGLMCAAGLVAAFLAVNAERRSLEDIAEPLSVAQTTAPAPASASGT | failed
13 | MSASRRSGTTDELGPDGPDPERDGPDGADLLAALLDGMDAALCAFDADGVVTHWNREAERILGWTAAEAVGRRGFAGWAVRTADAEDVEARLMTAMQAPGRQVHEFALLTKDGGRVLVRTQSAAVHGPDGKPAGVYCAFSEVHTQIDLERSIALSEALFEDASWGVVLVDADLRPAVVNAHAARALGTGRTTVLGRPLGDLLSQGVEELESALTHVLAEGAPPAPAEMWVSVRTAEGEKRRCWRSGFLRLASPLAEEPVPLGVGWLFQDITEAKQTEQEAALLRFRTNQLHRAARAAAECEDPGEAATVHLDFSLAGFADHALIDRVAGGPVADGDRDGDGPPVRLVRAADTPSGAPGPSLLVGKAELPVWYAEGHPALQCVERAGSVRASAGVSDAERAREWAISRQWPGDAVHALCAVLRSRGRTLGVVTFLRGAGRSQFERADAVYAEDVAVRIAAALDLAGLAGLAGPAGER | failed
14 | MSATFSPTAVTDLKDIQDVERLMGRIKEARAAVGEVIFGQEAVVDEVLVTLLAGGHALLIGLPGLAKTKLVQTLGTVVGLRDKRVQFTPDLMPADILGSEVLEEDAAGQRGFRFLPGPVFCQLLMADEINRASPRTQSALLQAMQEHRVSVAGHYHDLPAPFHVLATQNPIEQEGTYPLPEAQLDRFLMQVDVGYPDEAAERRMLAATTGVHQPEARAVMTPAELQAAQALVRRVPVGDSVVDAILSLVRAGRPESSPLPEVRDWVAWGPGPRASQALTLAVRARALLDGRFAPSIEDVIALAHPILRHRMALSFGARADGVTLGRVVDRLIDKIALEHHHHHH | not failed
15 | MSATLQDHTVAFRDPALTDIARAIAHGDVARIKALAPTVDLAAHGDQNVTLLEWAIWNEQPRALAALLDAGADPSLPGMDQETVVHMAAMAQDPEYLQILLQHKAPIDVVSARAGWTPLFRAMQSKRDAQIDLLIKAGADVQRVDHTGNSLLHLAAQSGAASPAVLTLLNAGVDPAVRNAQQKTFQAYFFTTPDRLLNASGQQVRSEVRAWLNAHNIPVESSR | failed
16 | MSAVCGGAARMLRTPGRHGYAAEFSPYLPGRLACATAQHYGIAGCGTLLILDPDEAGLRLFRSFDWNDGLFDVTWSENNEHVLITCSGDGSLQLWDTAKAAGPLQVYKEHAQEVYSVDWSQTRGEQLVVSGSWDQTVKLWDPTVGKSLCTFRGHESIIYSTIWSPHIPGCFASASGDQTLRIWDVKAAGVRIVIPAHQAEILSCDWCKYNENLLVTGAVDCSLRGWDLRNVRQPVFELLGHTYAIRRVKMESCPVTQTRSQLTATSAFWVQAVLLPQPTE | failed
17 | MSAVTESVLESIISPVTMSEFLEEYWPVKPLVARGEVERFTSIPGFEKVRTLENVLAIYNNPVMVVGDAVIEESEGITDRFLVSPAEALEWYEKGAALEFDFTDLFIPQVRRWIEKLKAELRLPAGTSSKAIVYAAKNGGGFKAHFDAYTNLIFQIQGEKTWKLAKNENVSNPMQHYDLSEAPYYPDDLQSYWKGDPPKEDLPDAEIVNLTPGTMLYLPRGLWHSTKSDQATLALNITFGQPAWLDLMLAALRKKLISDNRFRELAVNHQSLHESSKSELNGYLESLIQTLSENAETLTPEQIFQSQDSDFDPYQSTQLVFRQLLTSYKF | not failed
18 | MSCFYLDLLKIKDPSFMKRLDIQELEALAADIRAFLITSTSKSGGHIGPNLGVVELTIALHYSFNSPKDKFIWDVGHQSYVHKILTGRANQFGTLREHGGLDGFPKRKESIHDVFETGHSSTSLSAAAGMVIARDIKKEDFYVIPIIGDGALTGGMALEALNHIGDMGKDMIVILNDNDMSIAPNVGAIHNILGKLRTSDTSKQTKTNVDGAFFEELGFMYLGPIDGHDIEEVITNLELAKRAKGPVLLHIVTKKGKGYQPAELDSRGTWHGTGPYKVETGSFIKPAKRAASWSSVISNELIRLAEMDERIVAITPAMPVGSKLEKFAKAFPERFFDVGIAEQHATTMAAGLATQGMKPFLAIYSTFLQRAYDQLVHDVCRQKLNVVIGIDRAGLVGADGETHQGIFDISFLNSIPNMTISMPKDEVEARQLMDTAFSYNDGPFAIRYPRGEAPGVQVVESNTLIPIGQWETIIQPLDAVILTFGPTIELALKAAEQLEIEGYRVGVINARYIKPLDEALLHKILKQKIPILTVEESLLKGGFGASVLEFIEANNYRDVIMHRIGLPDEFISHGSVSIILESFGISTTGLVLKIKEMLAQSGKLRAKRL | failed
19 | MSCHLSYLEGTMEFMISGRNLTVSDRFREYAGEKISKIESLGDKVQRVDAKVSKETNPRQTPGELTVEVTVLGRGPVIRAEATAADKFAAFDLAYNKLLERLRRAKDRKKVHHGRHTPKAVREATATLEPASASEPLYVEASNHQESAPPVDERSPYDIENDIPAGDSPVLIRRKVFPAASLTLDDAVDNMELVGHNFYLFLDKETNAPSVVYRRSGWTYGVITLDSTCEPGEEAVEEKIHAYRSDDQAATAK | failed
